In publication PMC11650696 one finds TLR5 stimulatory activity, EC50 (NF-κB luciferase reporter assay, stably transfected CHO K1 cells), Inflammasome EC50 (IL-1β secretion of LPS-primed mouse BMDMs after transfection of the protein) and TLR5 EC50 (NF-κB luciferase reporter assay, stably transfected CHO K1 cells) data, which are given here for two substances.

Assay [1] has as its target TLR5 (UniProt O60602).
The target of assay [2] is Naip5 and Naip6 (Naip5/6) (mouse (endogenous in BMDMs)).
Assay [3] addresses TLR5 (UniProt O60602). The source holds these as a separate data set.

UniProt O60602, sequence (O60602 21-858): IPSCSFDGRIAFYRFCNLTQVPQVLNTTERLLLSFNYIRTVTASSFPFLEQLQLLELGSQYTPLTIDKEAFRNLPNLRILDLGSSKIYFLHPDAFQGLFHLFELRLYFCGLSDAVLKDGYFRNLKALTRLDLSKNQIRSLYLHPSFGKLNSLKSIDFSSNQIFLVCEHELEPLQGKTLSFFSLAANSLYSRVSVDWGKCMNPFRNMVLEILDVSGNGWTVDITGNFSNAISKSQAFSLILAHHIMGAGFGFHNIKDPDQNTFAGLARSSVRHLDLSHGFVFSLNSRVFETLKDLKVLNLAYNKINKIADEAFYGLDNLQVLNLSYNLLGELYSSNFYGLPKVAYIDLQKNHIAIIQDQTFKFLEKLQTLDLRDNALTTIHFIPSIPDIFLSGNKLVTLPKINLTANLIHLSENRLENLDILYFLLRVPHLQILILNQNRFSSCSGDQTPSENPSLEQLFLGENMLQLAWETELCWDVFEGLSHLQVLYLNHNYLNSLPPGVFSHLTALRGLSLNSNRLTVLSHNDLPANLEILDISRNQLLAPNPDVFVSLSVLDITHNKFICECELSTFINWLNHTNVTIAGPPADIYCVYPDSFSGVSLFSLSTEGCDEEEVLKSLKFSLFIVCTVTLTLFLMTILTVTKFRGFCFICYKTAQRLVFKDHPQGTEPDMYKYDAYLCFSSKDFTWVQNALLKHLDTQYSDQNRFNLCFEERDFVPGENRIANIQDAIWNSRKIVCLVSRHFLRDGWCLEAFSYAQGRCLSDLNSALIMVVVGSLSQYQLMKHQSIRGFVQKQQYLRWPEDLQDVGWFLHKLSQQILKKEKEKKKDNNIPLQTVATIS

In the assay with TLR5 [1], “FliC flagellin monomers isolated from S. Typhimurium strain SL1344 (ΔflgM) (from UniProt P06179 1-495) (natural protein)” came in with a TLR5 stimulatory activity, EC50 (NF-κB luciferase reporter assay, stably transfected CHO K1 cells) of 1.1 ng/mL. In addition, the Inflammasome EC50 (IL-1β secretion of LPS-primed mouse BMDMs after transfection of the protein) in assay [2] amounted to 2 ng/mL. The substance also came in with a TLR5 EC50 (NF-κB luciferase reporter assay, stably transfected CHO K1 cells) with TLR5 [3] of 1.2 ng/mL.
“FliC^ΔD3 (from UniProt P06179 1-495) (natural protein)”: in the assay with TLR5 [3], the TLR5 EC50 (NF-κB luciferase reporter assay, stably transfected CHO K1 cells) amounted to 0.1 ng/mL.
